Reference: patent US20220175781A1, “CD40L COMPOSITIONS AND METHODS FOR TUNABLE REGULATION” (Obsidian Therapeutics, Inc., priority 2019, published 2022)
“And” between values parts separate entries of the source, which are not always exact repeats. Identical values can stand only once.

Assays:
CD8+ T cells = test: Ligand dose response, % CD40L positive cells, CD8+ T cells; format: cell-based
Protocol: (§1) Ligand dose response curve experiments were performed with increasing doses of ligand using OT-001662 and OT-001666 constructs in both CD4+ as well as CD8+ T cells.
(§2) The experiments were conducted using three different volumes of virus for transduction i.e. 0.5, 2 and 10 μL.

HEK-Blue™ CD40 cells = test: HEK-Blue CD40 SEAP reporter co-culture with transduced Jurkat cells; format: cell-based; conditions: ligand 24 h (1 μM Shield-1, 50 μM TMP or 1 μM Bazedoxifene), recombinant soluble CD40L as standard
Protocol: Jurkat cells transduced with OT-001661, OT-001685, OT-001662, OT-001666, or OT-001667 were co-cultured with HEK-Blue™ CD40 cells (Invivogen, San Diego, Calif.). Cocultures were treated with ligands (1 μM Shield-1, 50 μM TMP, 1 μM Bazedoxifene (BZD) or vehicle control) for 24 hours and the secreted embryonic alkaline phosphatase (SEAP) reporter levels were measured in the media. All vehicle treated samples had background SEAP activity. Recombinant soluble CD40L was used as the standard in the experiments.

CD8 positive T cells = test: CD40L MFI by FACS in transduced CD8 positive T cells; format: cell-based
Protocol: Regulation of ecDHFR (R12Y, Y100I) DRD based construct OT-001662 and ER (N413D) DRD based construct OT-001666 were tested in CD8 positive T cells. For OT-001662, expressing cells, ligand was added 6 days after viral transduction at a dose of 50 μM TMP. OT-001666 expressing cells were treated with 0.5 μM Bazedoxifene or vehicle control, 5 days after transduction. Approximately 15-30k cells were analyzed per sample by FACS. All samples were compared to empty vector control as well as the constitutively expressed construct, OT-001661. Table 11 provides the mean fluorescence intensities (MFIs) obtained with each sample.

T cells = test: % CD40L positive cells in vivo, transduced T cells in NSG mice dosed with TMP; set-up: species or system NSG female mice
Protocol: Based on the in vitro data, regulatability of CD40L constructs in vivo was tested. 10-week old NSG female mice were injected with T cells transduced with one of the following constructs empty vector, OT-001661, and OT-001662 (day 0). On day 1, mice were pre-bled prior to dose with ligand. On day 2, mice were dosed every 4 hours with TMP at 500 mg/kg body weight of the mouse or vehicle control. Two hours after every dose, blood was collected from the mice to measure CD40L levels. On day 3, i.e. 24 hours after the first dose, mice were terminally bled for analysis. The values in bold represent the average values for each bleed.

CD4+ T cells = test: Ligand dose response, % CD40L positive cells, CD4+ T cells; format: cell-based
Protocol: as §1, §2

[1] = tested on: T cells (CD4 and CD8 positive); test: CD40L MFI in vitro in CD4 and CD8 positive T cells, 10 μM TMP; format: cell-based
Protocol: T cells were transduced with OT-001662 and then treated with 10 μM TMP on day 4. CD40L expression was analyzed by FACS both in the CD4 and CD8 positive T cell populations.

Jurkat cells = test: Surface expression of CD40L by FACS in lentivirally transduced Jurkat cells; format: cell-based; conditions: FACS
Protocol: 50,000 Jurkat cells were transduced with lentiviruses corresponding to the constructs. OT-001661, OT-001685, OT-001662, or OT-001666 and cultured for 48h. Cells were split and incubated with ligands for 24h before analysis by flow cytometry.
Jurkat cells were treated with one of the following: 1 μM Shield-1, 50 μM TMP, 1 μM Bazedoxifene (BZD) or vehicle control. Surface expression of CD40L was measured using FACS and the results are show in Table 9. All values were normalized to mode.

[2] = ligand 24 h (1 μM Shield-1 OT-001685, 50 μM TMP OT-001662, 1 μM Bazedoxifene OT-001666)
[3] = vehicle 24 h (Ethanol 0.2% OT-001685, DMSO 0.5% OT-001662, DMSO 0.01% OT-001666)

B1: OT-001662: CD40L construct with ecDHFR (M1del, R12Y, Y100I) DRD, ligand TMP (protein)
chain: MSGISLIAALAVDYVIGMENAMPWNLPADLAWFKRNTLNKPVIMGRHTWESIGRPLPGRKNIILSSQPGTDDRVTWVKSVDEAIAACGDVPEIMVIGGGRVIEQFLPKAQKLYLTHIDAEVEGDTHFPDYEPDDWESVFSEFHDADAQNSHSYCFEILERRHMIETYNQTSPRSAATGLPISMKIFMYLLTVFLITQMIGSALFAVYLHRRLDKIEDERNLHEDFVFMKTIQRCNTGERSLSLLNCEEIKSQFEGFVKDIMLNKEETKKENSFEMQKGDQNPQIAAHVISEASSKTTSVLQWAEKGYYTMSNNLVTLENGKQLTVKRQGLYYIYAQVTFCSNREASSQAPFIASLCLKSPGRFERILLRAANTHSSAKPCGQQSIHLGGVFELQPGASVFVNVTDPSQVSHGTGFTSFGLLKL
- % CD40L positive cells (CD8+ T cells; 0.5 μL virus, TMP 0.05 nM): 0.16%
- % CD40L positive cells (CD8+ T cells; 0.5 μL virus, TMP 0.5 nM): 0.17%
- % CD40L positive cells (CD8+ T cells; 0.5 μL virus, TMP 5 nM): 0.12%
- % CD40L positive cells (CD8+ T cells; 0.5 μL virus, TMP 50 nM): 0.19%
- % CD40L positive cells (CD8+ T cells; 0.5 μL virus, TMP 500 nM): 0.66%
- % CD40L positive cells (CD8+ T cells; 0.5 μL virus, TMP 5000 nM): 9.21%
- % CD40L positive cells (CD8+ T cells; 0.5 μL virus, TMP 50000 nM): 25.2%
- % CD40L positive cells (CD8+ T cells; 2 μL virus, TMP 0.05 nM): 0.2%
- % CD40L positive cells (CD8+ T cells; 2 μL virus, TMP 0.5 nM): 0.34%
- % CD40L positive cells (CD8+ T cells; 2 μL virus, TMP 5 nM): 0.3%
- % CD40L positive cells (CD8+ T cells; 2 μL virus, TMP 50 nM): 0.64%
- % CD40L positive cells (CD8+ T cells; 2 μL virus, TMP 500 nM): 6.84%
- % CD40L positive cells (CD8+ T cells; 2 μL virus, TMP 5000 nM): 40.6%
- % CD40L positive cells (CD8+ T cells; 2 μL virus, TMP 50000 nM): 51%
- % CD40L positive cells (CD8+ T cells; 10 μL virus, TMP 0.05 nM): 0.95%
- % CD40L positive cells (CD8+ T cells; 10 μL virus, TMP 0.5 nM): 1.08%
- % CD40L positive cells (CD8+ T cells; 10 μL virus, TMP 5 nM): 1.02%
- % CD40L positive cells (CD8+ T cells; 10 μL virus, TMP 50 nM): 1.07%
- % CD40L positive cells (CD8+ T cells; 10 μL virus, TMP 500 nM): 5.53%
- % CD40L positive cells (CD8+ T cells; 10 μL virus, TMP 5000 nM): 47.4%
- % CD40L positive cells (CD8+ T cells; 10 μL virus, TMP 50000 nM): 59.4%
- Soluble CD40L (HEK-Blue™ CD40 cells): 8657.75 pg/mL
- Expression of CD40L in the presence of ligand, comparison of constructs (CD8 positive T cells): higher than the ER DRD based construct
- CD40L MFI (CD8 positive T cells; +Ligand (50 μM TMP OT-001662; 0.5 μM Bazedoxifene OT-001666)): 283
- CD40L MFI (CD8 positive T cells; Vehicle): 29.0
- % CD40L positive cells in vivo (T cells; 0 hours, average, TMP 500 mg/kg every 4 hours): 1.0%
- % CD40L positive cells in vivo (T cells; 0 hours, average, Vehicle): 0.9%
- % CD40L positive cells in vivo (T cells; 0 hours, individual values, TMP 500 mg/kg every 4 hours): 0.9% (2×) and 0.4% and 1.8%
- % CD40L positive cells in vivo (T cells; 0 hours, individual values, Vehicle): 0.8% and 0.9% and 0.1% and 1.8%
- % CD40L positive cells in vivo (T cells; 2 hours, average, TMP 500 mg/kg every 4 hours): 8.6%
- % CD40L positive cells in vivo (T cells; 2 hours, average, Vehicle): 0.9%
- % CD40L positive cells in vivo (T cells; 2 hours, individual values, TMP 500 mg/kg every 4 hours): 11.8% and 13.0% and 9.6% and 0.0%
- % CD40L positive cells in vivo (T cells; 2 hours, individual values, Vehicle): 0.6% and 1.0% and 0.0% and 1.9%
- % CD40L positive cells in vivo (T cells; 6 hours, average, TMP 500 mg/kg every 4 hours): 19.9%
- % CD40L positive cells in vivo (T cells; 6 hours, average, Vehicle): 0.3%
- % CD40L positive cells in vivo (T cells; 6 hours, individual values, TMP 500 mg/kg every 4 hours): 22.1% and 25.7% and 13.8% and 18.0%
- % CD40L positive cells in vivo (T cells; 6 hours, individual values, Vehicle): 0.3% and 0.4% and 0.5% and 0.2%
- % CD40L positive cells in vivo (T cells; 10 hours, average, TMP 500 mg/kg every 4 hours): 20.1%
- % CD40L positive cells in vivo (T cells; 10 hours, average, Vehicle): 0.1%
- % CD40L positive cells in vivo (T cells; 10 hours, individual values, TMP 500 mg/kg every 4 hours): 26.0% and 21.4% and 0.0% and 33.1%
- % CD40L positive cells in vivo (T cells; 10 hours, individual values, Vehicle): 0.0% (3×) and 0.3%
- % CD40L positive cells in vivo (T cells; 24 hours, average, TMP 500 mg/kg every 4 hours): 12.0%
- % CD40L positive cells in vivo (T cells; 24 hours, average, Vehicle): 0.6%
- % CD40L positive cells in vivo (T cells; 24 hours, individual values, TMP 500 mg/kg every 4 hours): 1.2% and 0.8% and 18.9% and 27.2%
- % CD40L positive cells in vivo (T cells; 24 hours, individual values, Vehicle): 0.0% and 0.3% and 1.4% and 0.7%
- % CD40L positive cells (CD4+ T cells; 0.5 μL virus, TMP 0.05 nM): 31.6%
- % CD40L positive cells (CD4+ T cells; 0.5 μL virus, TMP 0.5 nM): 32%
- % CD40L positive cells (CD4+ T cells; 0.5 μL virus, TMP 5 nM): 33.9%
- % CD40L positive cells (CD4+ T cells; 0.5 μL virus, TMP 50 nM): 35.7%
- % CD40L positive cells (CD4+ T cells; 0.5 μL virus, TMP 500 nM): 48.2%
- % CD40L positive cells (CD4+ T cells; 0.5 μL virus, TMP 5000 nM): 67%
- % CD40L positive cells (CD4+ T cells; 0.5 μL virus, TMP 50000 nM): 68.9%
- % CD40L positive cells (CD4+ T cells; 2 μL virus, TMP 0.05 nM): 25.1%
- % CD40L positive cells (CD4+ T cells; 2 μL virus, TMP 0.5 nM): 24.4%
- % CD40L positive cells (CD4+ T cells; 2 μL virus, TMP 5 nM): 27.6%
- % CD40L positive cells (CD4+ T cells; 2 μL virus, TMP 50 nM): 37.4%
- % CD40L positive cells (CD4+ T cells; 2 μL virus, TMP 500 nM): 68.4%
- % CD40L positive cells (CD4+ T cells; 2 μL virus, TMP 5000 nM): 76.8%
- % CD40L positive cells (CD4+ T cells; 2 μL virus, TMP 50000 nM): 76.8%
- % CD40L positive cells (CD4+ T cells; 10 μL virus, TMP 0.05 nM): 23.8%
- % CD40L positive cells (CD4+ T cells; 10 μL virus, TMP 0.5 nM): 24.2%
- % CD40L positive cells (CD4+ T cells; 10 μL virus, TMP 5 nM): 24.6%
- % CD40L positive cells (CD4+ T cells; 10 μL virus, TMP 50 nM): 30.7%
- % CD40L positive cells (CD4+ T cells; 10 μL virus, TMP 500 nM): 58.5%
- % CD40L positive cells (CD4+ T cells; 10 μL virus, TMP 5000 nM): 79.1%
- % CD40L positive cells (CD4+ T cells; 10 μL virus, TMP 50000 nM): 78.8%
- CD40L MFI in vitro ([1]; CD4+, TMP (10 μM)): 10159
- CD40L MFI in vitro ([1]; CD4+, Vehicle): 348
- CD40L MFI in vitro ([1]; CD8+, TMP (10 μM)): 4893
- CD40L MFI in vitro ([1]; CD8+, Vehicle): 182
- CD40L positive percent of live cells (Jurkat cells; [2]): 98.4%
- Geometric Mean of CD40L fluorescent intensity (Jurkat cells; [2]): 6068
- CD40L positive percent of live cells (Jurkat cells; [3]): 0.023%
- Geometric Mean of CD40L fluorescent intensity (Jurkat cells; [3]): 27.9
